From patent US20200017862

Molecular target: WT His-tagged PCNA (recombinant Xenopus PCNA) (UniProt P18248)
Sequence (P18248 whole entry): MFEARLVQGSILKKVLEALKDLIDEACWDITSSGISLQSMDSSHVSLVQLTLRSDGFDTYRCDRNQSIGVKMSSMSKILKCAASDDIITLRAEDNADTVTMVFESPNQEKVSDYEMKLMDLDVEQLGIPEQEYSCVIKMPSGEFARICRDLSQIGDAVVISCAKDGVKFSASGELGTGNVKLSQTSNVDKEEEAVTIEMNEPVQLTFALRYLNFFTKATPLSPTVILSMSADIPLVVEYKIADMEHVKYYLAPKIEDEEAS

Row | Substance | exonuclease activity on FAM-labeled gapped dsDNA, purified proteins in vitro
1 | F486A-Y487A GST-APE2 (mutant of full GST-APE2) | the gapped dsDNA structure was still resected by C470A APE2 or F486A-Y487A APE2 to some extent similar to WT APE2 with the presence of WT PCNA
2 | C470A GST-APE2 (mutant of full GST-APE2) | the gapped dsDNA structure was still resected by C470A APE2 or F486A-Y487A APE2 to some extent similar to WT APE2 with the presence of WT PCNA
